Read-outs that look alike come from different tables or passages of the source.
Assays:
[1] = target: T1, Claudin 18.2 (CLDN18.2), expressed on CHOS-CLDN 18.2 / HEK293-CLDN 18.2 / HCC827-CLDN 18.2 cells (human, UniProt P56856-2 1-261); assay: FACS, CHOS-CLDN18.2 cells, 0.020 µg/ml
T1 construct: whole, on cells; The species is not repeated for the CHOS-CLDN 18.2 cells; also called claudin-18A2
Method: (§1) The initial concentration of the antibody was 20 μg/ml, it was diluted at 1:4, and incubated at 4° C. for 60 min.

[2] = target: T1, Claudin 18.2 (CLDN18.2), expressed on …; assay: FACS, CHOS-CLDN18.2 cells, 20 µg/ml
Method: as §1

[3] = target: T1, Claudin 18.2 (CLDN18.2), expressed on …; assay: FACS, CHOS-CLDN18.2 cells, 20 µg/ml; remark: listed apart in the source
Method: as §1

[4] = target: T1, Claudin 18.2 (CLDN18.2), expressed on …; assay: cell-based or functional assay
[5] = target: T1, Claudin 18.2 (CLDN18.2), expressed on …; assay: FACS, CHOS-CLDN18.2 cells, 1.250 µg/ml
Method: as §1

[6] = target: T1, Claudin 18.2 (CLDN18.2), expressed on …; assay: FACS, CHOS-CLDN18.2 cells, 0.078 µg/ml
Method: as §1

[7] = target: T1, Claudin 18.2 (CLDN18.2), expressed on …; assay: FACS, CHOS-CLDN18.2 cells, 0 µg/ml (background)
Method: as §1

[8] = target: T1, Claudin 18.2 (CLDN18.2), expressed on …; assay: FACS, CHOS-CLDN18.2 cells, 0.078 µg/ml; remark: listed apart in the source
Method: as §1

[9] = target: T1, Claudin 18.2 (CLDN18.2), expressed on …; assay: FACS, CHOS-CLDN18.2 cells, 0.005 µg/ml
Method: as §1

[10] = target: T1, Claudin 18.2 (CLDN18.2), expressed on …; assay: FACS, CHOS-CLDN18.2 cells, 20 µg/ml; remark: listed apart in the source
Method: as §1

[11] = target: T1, Claudin 18.2 (CLDN18.2), expressed on …; assay: FACS, CHOS-CLDN18.2 cells, 0.005 µg/ml; remark: listed apart in the source
Method: as §1

[12] = target: T1, Claudin 18.2 (CLDN18.2), expressed on …; assay: FACS, CHOS-CLDN18.2 cells, 0.020 µg/ml; remark: listed apart in the source
Method: as §1

[13] = target: T1, Claudin 18.2 (CLDN18.2), expressed on …; assay: FACS, CHOS-CLDN18.2 cells, 0.078 µg/ml; remark: listed apart in the source
Method: as §1

[14] = target: T1, Claudin 18.2 (CLDN18.2), expressed on …; assay: FACS, CHOS-CLDN18.2 cells
Method: as §1

[15] = target: T1, Claudin 18.2 (CLDN18.2), expressed on …; assay: FACS, CHOS-CLDN18.2 cells, 0.313 µg/ml
Method: as §1

[16] = target: T1, Claudin 18.2 (CLDN18.2), expressed on …; assay: FACS, CHOS-CLDN18.2 cells, 0 µg/ml (background); remark: listed apart in the source
Method: as §1

[17] = target: T1, Claudin 18.2 (CLDN18.2), expressed on …; assay: FACS, CHOS-CLDN18.2 cells; remark: listed apart in the source
Method: as §1

[18] = target: T1, Claudin 18.2 (CLDN18.2), expressed on …; assay: FACS, CHOS-CLDN18.2 cells; remark: listed apart in the source
Method: as §1

FACS reading [1]: 6950
FACS reading [2]: 72300
FACS reading [3]: 72300
FACS reading [5]: 63700
FACS reading [6]: 18200
FACS reading [7]: 732
FACS reading [8]: 18200
FACS reading [9]: 2830
FACS reading [10]: 72300
FACS reading [11]: 2830
FACS reading [12]: 6950
FACS reading [13]: 18200
EC50 [14]: 0.27 µg/mL
max [14]: 88600
FACS reading [15]: 51000
FACS reading [16]: 732
EC50 [17]: 0.27 µg/mL
max [17]: 88600
EC50 [18]: 0.27 µg/mL
max [18]: 88600
B1: QP024025 (antibody, human IgG1, V domains shown)
VH: QVQLQQPGAELVRPGASVKLSCKASGYTFTSYWINWVKQRPGQGLEWIGNIYPSDSYTNYNQKFKDKATLTVDKSSSTAYMQLSSPTSEDSAVYYCTRSWRGNSFDYWGQGTTLTVSS
VL: DIVMTQSPSSLTVTAGEKVTMSCKSSQSLLNSGNQKNYLTWYQQKPGQPPKLLIYWASTRESGVPDRFTGSGSGTDFTLTISSVQAEDLAVYYCQNDYSYPFTFGSGTKLEIK
notes: also called IMAB362; 175D10(IMAB362)
EC50 of killing, ADCC (PBMC, HEK293-CLDN18.2 cells) [4]: 0.0156 µg/mL
Killing percentage, ADCC (PBMC, HEK293-CLDN18.2 cells), 0 µg/ml [4]: -1.33%
Killing percentage, ADCC (PBMC, HEK293-CLDN18.2 cells), 0.0001024 µg/ml [4]: -2.74%
Killing percentage, ADCC (PBMC, HEK293-CLDN18.2 cells), 0.000512 µg/ml [4]: 1.7%
Killing percentage, ADCC (PBMC, HEK293-CLDN18.2 cells), 0.00256 µg/ml [4]: 1.49%
Killing percentage, ADCC (PBMC, HEK293-CLDN18.2 cells), 0.0128 µg/ml [4]: 11%
Killing percentage, ADCC (PBMC, HEK293-CLDN18.2 cells), 0.064 µg/ml [4]: 22%
Killing percentage, ADCC (PBMC, HEK293-CLDN18.2 cells), 0.32 µg/ml [4]: 28.2%
Killing percentage, ADCC (PBMC, HEK293-CLDN18.2 cells), 1.6 µg/ml [4]: 30%
Killing percentage, ADCC (PBMC, HEK293-CLDN18.2 cells), 8 µg/ml [4]: 26.2%
Killing percentage, ADCC (PBMC, HEK293-CLDN18.2 cells), 40 µg/ml [4]: 21.6%

Reference: US20230183352A1 (published 2023)
